Tested on: Bacillus subtilis
Assay: cleaved RNA product abundance (RNA/gDNA barcode ratio) relative to median wild-type variant (ratio to wild type); higher = more accumulation of the downstream cleavage product
Details: cleavage site: cggR-gapA (positions -7 to +36 mutated)
Outline: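 Reporter mRNAs (truncated aprE or tetM) carrying barcoded, mutagenized RNase Y cleavage-site windows were made from oligos with a 9% error rate and integrated into the B. subtilis chromosome. Cultures grew in LB at 37°C from OD600 0.0003 to 0.3. Cleaved RNA was gel-selected, reverse transcribed and barcode-sequenced alongside genomic DNA barcodes, with UMI collapsing. Cleaved product abundance is the RNA:gDNA barcode ratio per variant, scaled to the median wild-type variant.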

[1] = experiment (reporter, strain, medium): exp 2b: truncated aprE reporter, strain BJT200
[2] = experiment (reporter, strain, medium): exp 4a: truncated aprE reporter, strain BJT201 with 2% xylose (RNase J1 expressed)
[3] = experiment (reporter, strain, medium): exp 6: tetM reporter, strain 168

Sequence	cleaved RNA product abundance [1]	cleaved RNA product abundance [2]	cleaved RNA product abundance [3]
ACAGACGAAGGAGCCGCAAAGAAGTTATTAAGGGATGAATAATCCCACAATATGAATATCTCTCACTTATTTAAA	0.107	0.0667	–
ACAGACGAAGGAGCCGCAAAGAAGTTATTAAGGGATGAATAATCCCACATTATAAATATCTCTCACTTATTTAAA	–	0.152	–
ACAGACGAAGGAGCCGCAAAGAAGTTATTAAGGGATGAATAATCCCACCATATAAATATCTCTCACTTATTTAAA	0.16	0.228	–
ACAGACGAAGGAGCCGCAAAGAAGTTATTAAGGGATGAATAATCCCACTATATAAATATCTCTCACTTATTTAAA	–	0.282	–
ACAGACGAAGGAGCCGCAAAGAAGTTATTAAGGGATGAATAATCCCAGAATATAAATATCTCTCACTTATTTAAA	–	0.361	–
ACAGACGAAGGAGCCGCAAAGAAGTTATTAAGGGATGAATAATCCCATAATATAAATATCTCTCACTTATTTAAA	–	0.715	–
ACAGACGAAGGAGCCGCAAAGAAGTTATTAAGGGATGAATAATCCCCAAATATAAATATCTCTCACTTATTTAAA	0.336	–	–
ACAGACGAAGGAGCCGCAAAGAAGTTATTAAGGGATGAATAATCCCCCAATATAAACATCTCTCACTTATTTAAA	–	0.291	–
ACAGACGAAGGAGCCGCAAAGAAGTTATTAAGGGATGAATAATCCCCCAATATAAATAACTCTCACTTATTTAAA	–	0.347	–
ACAGACGAAGGAGCCGCAAAGAAGTTATTAAGGGATGAATAATCCCCCAATATAAATATCTCTCACTTATTTAAA	0.285	0.36	0.457
ACAGACGAAGGAGCCGCAAAGAAGTTATTAAGGGATGAATAATCCCCCAATATACATATCTCTCACTTATTTAAA	–	0.446	–
ACAGACGAAGGAGCCGCAAAGAAGTTATTAAGGGATGAATAATCCCCCACTATAAATATCTCTCACTTATTTAAA	–	0.3	–
ACAGACGAAGGAGCCGCAAAGAAGTTATTAAGGGATGAATAATCCCCCTATATAAATATCTCTCACTTATTTAAA	–	0.151	–
ACAGACGAAGGAGCCGCAAAGAAGTTATTAAGGGATGAATAATCCCCTAATATAAATATCTCTCACTTATTTAAA	–	1.25	–
ACAGACGAAGGAGCCGCAAAGAAGTTATTAAGGGATGAATAATCCCCTCAATATAAATATCTCTCACTTATTTAA	0.181	0.364	–
ACAGACGAAGGAGCCGCAAAGAAGTTATTAAGGGATGAATAATCCCGAAATATAAATATCTCTCACTTATTTAAA	–	0.323	–
ACAGACGAAGGAGCCGCAAAGAAGTTATTAAGGGATGAATAATCCCGCAATATAAATATCTCTCACTTATTTAAA	0.194	0.244	0.252
ACAGACGAAGGAGCCGCAAAGAAGTTATTAAGGGATGAATAATCCCGCAATATAGATATCTCTCACTTATTTAAA	–	0.279	–
ACAGACGAAGGAGCCGCAAAGAAGTTATTAAGGGATGAATAATCCCGCAATATATATATCTCTCACTTATTTAAA	–	0.139	–
ACAGACGAAGGAGCCGCAAAGAAGTTATTAAGGGATGAATAATCCCGCATTATAAATATCTCTCACTTATTTAAA	–	0.101	–
ACAGACGAAGGAGCCGCAAAGAAGTTATTAAGGGATGAATAATCCCGTAATATAAATATCTCTCACTTATTTAAA	–	0.682	–
ACAGACGAAGGAGCCGCAAAGAAGTTATTAAGGGATGAATAATCCCTAAAAATAAATATCTCTCACTTATTTAAA	0.213	0.423	–
ACAGACGAAGGAGCCGCAAAGAAGTTATTAAGGGATGAATAATCCCTAAACATAAATATCTCTCACTTATTTAAA	–	0.323	–
ACAGACGAAGGAGCCGCAAAGAAGTTATTAAGGGATGAATAATCCCTAAAGATAAATATCTCTCACTTATTTAAA	0.259	–	–
ACAGACGAAGGAGCCGCAAAGAAGTTATTAAGGGATGAATAATCCCTAAATACAAATATCTCTCACTTATTTAAA	–	0.0687	–
ACAGACGAAGGAGCCGCAAAGAAGTTATTAAGGGATGAATAATCCCTAAATATAAAAATCTCTCACTTATTTAAA	0.46	0.622	–
ACAGACGAAGGAGCCGCAAAGAAGTTATTAAGGGATGAATAATCCCTAAATATAAACATCTCTCACTTATTTAAA	0.509	0.57	–

Sequence	cleaved RNA product abundance [1]	cleaved RNA product abundance [2]	cleaved RNA product abundance [3]
ACAGACGAAGGAGCCGCAAAGAAGTTATTAAGGGATGAATAATCCCTAAATATAAAGATCTCTCACTTATTTAAA	–	0.356	–
ACAGACGAAGGAGCCGCAAAGAAGTTATTAAGGGATGAATAATCCCTAAATATAAATAACTCTCACTTATTTAAA	–	0.442	–
ACAGACGAAGGAGCCGCAAAGAAGTTATTAAGGGATGAATAATCCCTAAATATAAATATCTCTCACTATTTAAAG	–	0.705	–
ACAGACGAAGGAGCCGCAAAGAAGTTATTAAGGGATGAATAATCCCTAAATATAAATATCTCTCACTTATTTAAA	0.622	0.72	0.772
ACAGACGAAGGAGCCGCAAAGAAGTTATTAAGGGATGAATAATCCCTAAATATAAATATTTCTCACTTATTTAAA	–	0.836	–
ACAGACGAAGGAGCCGCAAAGAAGTTATTAAGGGATGAATAATCCCTAAATATACATATCTCTCACTTATTTAAA	0.498	0.465	–
ACAGACGAAGGAGCCGCAAAGAAGTTATTAAGGGATGAATAATCCCTAAATATAGATATCTCTCACTTATTTAAA	0.495	0.551	–
ACAGACGAAGGAGCCGCAAAGAAGTTATTAAGGGATGAATAATCCCTAAATATTAATATCTCTCACTTATTTAAA	0.189	–	–
ACAGACGAAGGAGCCGCAAAGAAGTTATTAAGGGATGAATAATCCCTAAATTTAAATATCTCTCACTTATTTAAA	0.162	–	–
ACAGACGAAGGAGCCGCAAAGAAGTTATTAAGGGATGAATAATCCCTAAGTATAAATATCTCTCACTTATTTAAA	0.255	0.502	–
ACAGACGAAGGAGCCGCAAAGAAGTTATTAAGGGATGAATAATCCCTAATTATAAATATCTCTCACTTATTTAAA	0.365	0.447	–
ACAGACGAAGGAGCCGCAAAGAAGTTATTAAGGGATGAATAATCCCTACATATAAATATCTCTCACTTATTTAAA	–	0.203	–
ACAGACGAAGGAGCCGCAAAGAAGTTATTAAGGGATGAATAATCCCTATATATAAATATCTCTCACTTATTTAAA	–	0.37	–
ACAGACGAAGGAGCCGCAAAGAAGTTATTAAGGGATGAATAATCCCTCAAAAAAAATATCTCTCACTTATTTAAA	–	0.0713	–
ACAGACGAAGGAGCCGCAAAGAAGTTATTAAGGGATGAATAATCCCTCAAAAGAAATATCTCTCACTTATTTAAA	–	0.0815	–
ACAGACGAAGGAGCCGCAAAGAAGTTATTAAGGGATGAATAATCCCTCAAAATAAAAATCTCTCACTTATTTAAA	–	0.393	–
ACAGACGAAGGAGCCGCAAAGAAGTTATTAAGGGATGAATAATCCCTCAAAATAAACATCTCTCACTTATTTAAA	–	0.316	–
ACAGACGAAGGAGCCGCAAAGAAGTTATTAAGGGATGAATAATCCCTCAAAATAAATAACTCTCACTTATTTAAA	–	0.363	–
ACAGACGAAGGAGCCGCAAAGAAGTTATTAAGGGATGAATAATCCCTCAAAATAAATAGCTCTCACTTATTTAAA	0.26	–	–
ACAGACGAAGGAGCCGCAAAGAAGTTATTAAGGGATGAATAATCCCTCAAAATAAATATCTCTCACTTATTTAAA	0.302	0.393	0.369
ACAGACGAAGGAGCCGCAAAGAAGTTATTAAGGGATGAATAATCCCTCAAAATAAATATTTCTCACTTATTTAAA	–	0.319	–
ACAGACGAAGGAGCCGCAAAGAAGTTATTAAGGGATGAATAATCCCTCAAAATAAATTTCTCTCACTTATTTAAA	–	0.285	–
ACAGACGAAGGAGCCGCAAAGAAGTTATTAAGGGATGAATAATCCCTCAAAATACATATCTCTCACTTATTTAAA	0.202	0.3	–
ACAGACGAAGGAGCCGCAAAGAAGTTATTAAGGGATGAATAATCCCTCAAAATAGATATCTCTCACTTATTTAAA	–	0.322	–
ACAGACGAAGGAGCCGCAAAGAAGTTATTAAGGGATGAATAATCCCTCAAAATATATATCTCTCACTTATTTAAA	–	0.304	–
ACAGACGAAGGAGCCGCAAAGAAGTTATTAAGGGATGAATAATCCCTCAAATATAAATATCTCTCACTTATTTAA	0.38	0.539	–
ACAGACGAAGGAGCCGCAAAGAAGTTATTAAGGGATGAATAATCCCTCAACAAAAATATCTCTCACTTATTTAAA	0.105	–	–

From the supplement of paper PMC11780869
